For assay [1], the target named is tubulin purified from cow brain (phosphocellulose-purified), assembled as vinblastine-induced curls, (cow) (UniProt Q2T9S0). Nature of the assay: co-sedimentation.
Assay [2] deals with CENP-F N558 (amino acids 1–558) (human). In words: sucrose gradient sedimentation + SEC.
Assay [3] concerns the target subtilisin-treated Taxol-stabilized MTs (S-MTs) (cow) (UniProt Q2T9S0). Nature of the assay: TIRF microscopy of MT-associated GFP fluorescence.

Sequence of subtilisin-treated Taxol-stabilized MTs (S-MTs) (cow) (Q2T9S0 whole entry, looked up): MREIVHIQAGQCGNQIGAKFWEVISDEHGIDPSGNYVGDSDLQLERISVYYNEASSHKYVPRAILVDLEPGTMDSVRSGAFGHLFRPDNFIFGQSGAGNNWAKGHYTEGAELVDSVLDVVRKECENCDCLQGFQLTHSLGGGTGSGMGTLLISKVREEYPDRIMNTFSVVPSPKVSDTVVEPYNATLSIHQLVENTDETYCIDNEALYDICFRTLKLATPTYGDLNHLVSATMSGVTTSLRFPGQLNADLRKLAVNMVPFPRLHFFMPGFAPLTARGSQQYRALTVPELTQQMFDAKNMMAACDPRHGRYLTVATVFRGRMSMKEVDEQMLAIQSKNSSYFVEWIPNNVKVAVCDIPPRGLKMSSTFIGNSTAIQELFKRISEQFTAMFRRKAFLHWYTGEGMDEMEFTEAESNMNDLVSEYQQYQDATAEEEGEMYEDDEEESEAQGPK

“CENP-F N558 (amino acids 1–558) (domain or fragment)”: in assay [1], the dissociation constant (Kd) – broadly, the free concentration of one partner at which half of the binding sites on the other are occupied at equilibrium, for simple one-to-one binding – worked out at 16 nM; the fold lower KD than for Tx-MTs was over 5 fold; the fold stronger binding than to Tx-MTs was under 2 fold. In addition, in assay [2], the stoichiometry N (in general, the number of molecules, sites or subunits per partner or assembly) was 2.
The substance “N436-sfGFP (CENP-F amino acids 1–436 fused to super-folding GFP) (domain or fragment)” came in with a fold reduction of MT-associated GFP fluorescence against untreated MTs in assay [3] of 8 fold.

The record behind these values is paper PMC4477864.
